Measured values reported in patent publication WO2020003077A1 (dated 2020).
Where a chain is given by its changes, count along the chain named. Names may count otherwise.

What was measured:
human thrombin [1] = molecular target: T1, human thrombin (human, UniProt P00734 314-363; P00734 364-622); assay: cell-based or functional assay
human thrombin [2] = molecular target: T1, human thrombin; assay: standard ELISA binding assay
prothrombin = prothrombin (UniProt P00734 44-622); assay: ForteBio Octet, immobilized IgG

B1: wild-type anti-exosite 1 IgA antibody (antibody, V domains shown)
VH: QVQLIQSGSAVKKPGASVRVSCKVSGYTLTEAAIHWVRQAPGKGLEWMGGLDPQDGETVYAQQFKGRVTMTEDRSTDTAYMEVNNLRSEDTATYYCTTGDFSEFEPFSMDYFHFWGQGTVVTVAS
VL: EIVLTQSPATLSLSPGERATLSCRASQNVSSFLAWYQHKPGQAPRLLIYDASSRATDIPIRFSGSGSGTDFTLTISGLEPEDFAVYYCQQRRSWPPLTFGGGTKVEIKR
In the case of B1, the “thrombin hydrolysis of FVIII (feedback activation of thrombin via Xase complex), antibody effect” value (human thrombin [1]) is reported as 7 fold decrease and the “thrombin hydrolysis of platelet receptor PAR-1 peptide (activation of platelets), antibody effect” value (human thrombin [1]) is reported as 15 fold decrease.

B2: synthetic anti-exosite 1 IgG S30A variant antibody (antibody, name in Kabat numbering, V domains shown)
VH: B1 VH
VL: B1 VL with S30A
notes: also called ichorcumab S30A; ichorcumab
B2: binds (human thrombin [2]).

B3: synthetic anti-exosite 1 IgG antibody (antibody, V domains shown)
VH: B1 VH
VL: B1 VL
notes: also called synthetic IgG; anti-exosite IgG antibody
B3: no binding (tested: 500nM) (prothrombin).
